Numbered stars: 1 amine (or outer) side, 2 acyl side, 3 side chain; on linkers, the order of the positions; unused ones are H or OH. Bridge positions count the residues as written; N and C are the ends. Square brackets hold non-standard residues; d marks the D form. Primed or numbered codes have the meaning given here. Ends that are not written are not given here. * marks the point of attachment. Phe(2,3-F2) = (2S)-3-(2,3-difluorophenyl)-2-aminopropanoic acid, O=C([C@H](Cc1cccc(F)c1F)N[*:1])[*:2]; TTDS = 1,13-diamino-4,7,10-trioxatridecan-succinamic acid, O=C(CCC(=O)[*:2])NCCCOCCOCCOCCCN[*:1]; Tranexamic″ = tranexamic acid, NC[C@H]1CC[C@@H](C(=O)*)CC1; Ida = iminodiacetic acid, O=C(CN(CC(=O)[*:3])[*:1])[*:2]; His(τ-Bzl) = N[C@@H](Cc1cn(Cc2ccccc2)cn1)C(=O)O; Pro(4-spirocPr) = O=C(O)[C@@H]1CC2(CC2)CN1; Oic = O=C(O)[C@@H]1C[C@@H]2CCCC[C@@H]2N1; PEG8 = NCCOCCOCCOCCOCCOCCOCCOCCOCCC(=O)O; PEG7 = NCCOCCOCCOCCOCCOCCOCCOCCC(=O)O; PEG6 = NCCOCCOCCOCCOCCOCCOCCC(=O)O; tBuAla = CC(C)(C)C[C@H](N)C(=O)O; PEG5 = NCCOCCOCCOCCOCCOCCC(=O)O; (3-Me)H = L-3-methylhistidine; Pen = CC(C)(S)[C@H](N)C(=O)O; Tranexamic = tranexamic acid; NMeA = CN[C@@H](C)C(=O)O; Orn = NCCC[C@H](N)C(=O)O; Sar = CNCC(=O)O
T1: recombinant human MASP1 active protease (amino acids 297-699, C-terminal His Tag) (human, UniProt P48740 297-699)
T1 sequence: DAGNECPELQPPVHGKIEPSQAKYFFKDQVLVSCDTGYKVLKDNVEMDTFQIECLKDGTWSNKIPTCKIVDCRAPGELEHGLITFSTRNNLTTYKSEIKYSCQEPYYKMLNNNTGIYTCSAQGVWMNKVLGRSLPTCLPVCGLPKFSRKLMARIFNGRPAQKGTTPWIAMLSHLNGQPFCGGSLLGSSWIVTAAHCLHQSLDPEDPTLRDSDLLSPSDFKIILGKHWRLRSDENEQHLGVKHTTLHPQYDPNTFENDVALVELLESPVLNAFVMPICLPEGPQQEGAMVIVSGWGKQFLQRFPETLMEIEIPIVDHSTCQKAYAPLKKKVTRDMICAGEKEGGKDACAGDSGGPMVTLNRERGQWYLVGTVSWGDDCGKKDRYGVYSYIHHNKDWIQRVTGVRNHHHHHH


Legend:
[1] = molecular target: T1, recombinant human MASP1 active protease …; assay: cell-based or functional assay
[2] = molecular target: recombinant human MASP2 active protease (amino acids 297-686, C-terminal His Tag) (human, UniProt O00187 297-686); assay: cell-based or functional assay
Sequence of recombinant human MASP2 active protease (amino acids 297-686, C-terminal His Tag) (O00187 other isoform, or with tags, fused parts or gaps limits assumed): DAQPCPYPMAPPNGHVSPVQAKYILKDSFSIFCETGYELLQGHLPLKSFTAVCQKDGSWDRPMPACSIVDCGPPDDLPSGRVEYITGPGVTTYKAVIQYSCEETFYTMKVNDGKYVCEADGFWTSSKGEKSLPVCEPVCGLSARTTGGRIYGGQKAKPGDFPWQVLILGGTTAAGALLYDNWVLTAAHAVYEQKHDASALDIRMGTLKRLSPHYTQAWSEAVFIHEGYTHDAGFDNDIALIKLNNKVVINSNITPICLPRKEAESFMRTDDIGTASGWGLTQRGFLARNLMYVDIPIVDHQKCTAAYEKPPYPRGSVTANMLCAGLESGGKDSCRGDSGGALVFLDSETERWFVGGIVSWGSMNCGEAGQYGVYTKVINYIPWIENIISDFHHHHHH

| Binder | human MASP1 IC50 [1] | human MASP2 IC50 [2] |
| --- | --- | --- |
| [Sar]ICSRS[Phe(2,3-F2)]PPI[Pen]IP-NH2 (disulfide 3-11; N-terminus assumed; SMILES CC[C@H](C)[C@H](NC(=O)CNC)C(=O)N[C@H]1CSSC(C)(C)[C@@H](C(=O)N[C@H](C(=O)N2CCC[C@H]2C(N)=O)[C@@H](C)CC)NC(=O)[C@H]([C@@H](C)CC)NC(=O)[C@@H]2CCCN2C(=O)[C@@H]2CCCN2C(=O)[C@H](Cc2cccc(F)c2F)NC(=O)[C@H](CO)NC(=O)[C@H](CCCNC(=N)N)NC(=O)[C@H](CO)NC1=O) [Example 440: ((N-Me)G)-IC+SRS-((2S)-3-(2,3-difluorophenyl)-2-aminopropanoic acid)-PPI-(Pen)+IP-NH2] | 18 nM | 26 nM |
| [Sar]ICSRS[tBuAla]PPI[Pen]IP[His(τ-Bzl)]-OH (disulfide 3-11; N-terminus assumed; SMILES CC[C@H](C)[C@H](NC(=O)CNC)C(=O)N[C@H]1CSSC(C)(C)[C@@H](C(=O)N[C@H](C(=O)N2CCC[C@H]2C(=O)N[C@@H](Cc2cn(Cc3ccccc3)cn2)C(=O)O)[C@@H](C)CC)NC(=O)[C@H]([C@@H](C)CC)NC(=O)[C@@H]2CCCN2C(=O)[C@@H]2CCCN2C(=O)[C@H](CC(C)(C)C)NC(=O)[C@H](CO)NC(=O)[C@H](CCCNC(=N)N)NC(=O)[C@H](CO)NC1=O) [Example 447: ((N-Me)G)-IC+SRS-((tBu)A)-PPI-(Pen)+IP-((1-Bn)H)-OH] | 4.7 nM | 65.5 nM |
| [NMeA]ICSRS[tBuAla]P[(3R,6R)‑1,1‑Difluoro‑5‑azaspiro(2.4)heptane‑6‑carboxylic acid (enantiomer 2)]I[Pen]IP-NH2 (disulfide 3-11) | 3 nM | 300 nM |
| {Tranexamic″}-ICSRS[tBuAla]PPI[Pen]IP-{PEG8-NH2} (disulfide 2-10; SMILES CC[C@H](C)[C@@H]1NC(=O)[C@@H]2CCCN2C(=O)[C@@H]2CCCN2C(=O)[C@H](CC(C)(C)C)NC(=O)[C@H](CO)NC(=O)[C@H](CCCNC(=N)N)NC(=O)[C@H](CO)NC(=O)[C@@H](NC(=O)[C@@H](NC(=O)[C@H]2CC[C@@H](CN)CC2)[C@@H](C)CC)CSSC(C)(C)[C@@H](C(=O)N[C@H](C(=O)N2CCC[C@H]2C(=O)NCCOCCOCCOCCOCCOCCOCCOCCOCCC(N)=O)[C@@H](C)CC)NC1=O) [Example 427: (Tranexamic)-IC+SRS-((tBu)A)-PPI-(Pen)+IP-(PEG8(28 atoms))-NH2] | 10 nM | 15 nM |
| [(3-Me)H]ICSRSLP[Oic]I[Pen]IP-NH2 (disulfide 3-11) [Example 444: ((3-Me)H)-IC+SRSLP-(Oic)-I-(Pen)+IP-NH2] | 2.8 nM | 61 nM |
| [Tranexamic]ICSRS[tBuAla]PPI[Pen]IP[TTDS]-NH2 (disulfide 3-11) [Example 429: (Tranexamic)-IC+SRS-((tBu)A)-PPI-(Pen)+IP-(TTDS)-NH2] | 6.9 nM | 12 nM |
| [Sar]ICSRS[Phe(2,3-F2)]P[Oic]I[Pen]IP-NH2 (disulfide 3-11; N-terminus assumed; SMILES CC[C@H](C)[C@H](NC(=O)CNC)C(=O)N[C@H]1CSSC(C)(C)[C@@H](C(=O)N[C@H](C(=O)N2CCC[C@H]2C(N)=O)[C@@H](C)CC)NC(=O)[C@H]([C@@H](C)CC)NC(=O)[C@@H]2C[C@@H]3CCCC[C@@H]3N2C(=O)[C@@H]2CCCN2C(=O)[C@H](Cc2cccc(F)c2F)NC(=O)[C@H](CO)NC(=O)[C@H](CCCNC(=N)N)NC(=O)[C@H](CO)NC1=O) | 65 nM | 220 nM |
| [Sar]ICSRSLP[Oic]I[Pen]IPP[(2S)‑3‑(Triazol-1-yl)‑2‑(amino)propanoic acid]-NH2 (disulfide 3-11) | 2.3 nM | 44 nM |
| [Sar]ICSRS[tBuAla]P[Pro(4-spirocPr)]I[Pen]IP-NH2 (disulfide 3-11; N-terminus assumed; SMILES CC[C@H](C)[C@H](NC(=O)CNC)C(=O)N[C@H]1CSSC(C)(C)[C@@H](C(=O)N[C@H](C(=O)N2CCC[C@H]2C(N)=O)[C@@H](C)CC)NC(=O)[C@H]([C@@H](C)CC)NC(=O)[C@@H]2CC3(CC3)CN2C(=O)[C@@H]2CCCN2C(=O)[C@H](CC(C)(C)C)NC(=O)[C@H](CO)NC(=O)[C@H](CCCNC(=N)N)NC(=O)[C@H](CO)NC1=O) | 3.2 nM | 15 nM |
| [NMeA]ICSRS[tBuAla]P[(3R,6R)‑1,1‑Difluoro‑5‑azaspiro(2.4)heptane‑6‑carboxylic acid (enantiomer 1)]I[Pen]IP-NH2 (disulfide 3-11) | 0.78 nM | 74 nM |
| [Sar]ICSRS[tBuAla]PPI[Pen]IP[Orn][Orn][Orn]-NH2 (disulfide 3-11; N-terminus assumed; SMILES CC[C@H](C)[C@H](NC(=O)CNC)C(=O)N[C@H]1CSSC(C)(C)[C@@H](C(=O)N[C@H](C(=O)N2CCC[C@H]2C(=O)N[C@@H](CCCN)C(=O)N[C@@H](CCCN)C(=O)N[C@@H](CCCN)C(N)=O)[C@@H](C)CC)NC(=O)[C@H]([C@@H](C)CC)NC(=O)[C@@H]2CCCN2C(=O)[C@@H]2CCCN2C(=O)[C@H](CC(C)(C)C)NC(=O)[C@H](CO)NC(=O)[C@H](CCCNC(=N)N)NC(=O)[C@H](CO)NC1=O) [Example 430: ((N-Me)G)-IC+SRS-((tBu)A)-PPI-(Pen)+IP-(Orn)-(Orn)-(Orn)-NH2] | 1.4 nM | 91 nM |
| [Sar]ICSRSLP[Oic]I[Pen]IP[5‑Azaspiro(2.4)heptane‑1‑carboxylic acid]-OH (disulfide 3-11) [Example 438: ((N-Me)G)-IC+SRSLP-(Oic)-I-(Pen)+IP-((5-Azaspiro[2.4]heptane-1-carboxylic acid)-OH] | 2.9 nM | 83 nM |
| {Tranexamic″}-ICSRS[tBuAla]PPI[Pen]IP-{PEG6-NH2} (disulfide 2-10; SMILES CC[C@H](C)[C@@H]1NC(=O)[C@@H]2CCCN2C(=O)[C@@H]2CCCN2C(=O)[C@H](CC(C)(C)C)NC(=O)[C@H](CO)NC(=O)[C@H](CCCNC(=N)N)NC(=O)[C@H](CO)NC(=O)[C@@H](NC(=O)[C@@H](NC(=O)[C@H]2CC[C@@H](CN)CC2)[C@@H](C)CC)CSSC(C)(C)[C@@H](C(=O)N[C@H](C(=O)N2CCC[C@H]2C(=O)NCCOCCOCCOCCOCCOCCOCCC(N)=O)[C@@H](C)CC)NC1=O) [Example 425: (Tranexamic)-IC+SRS-((tBu)A)-PPI-(Pen)+IP-(PEG5(22 atoms))-NH2] | 7.7 nM | 13 nM |
| [Sar]ICSRSLP[Oic]I[Pen]IP[Ida]-OH (disulfide 3-11) [Example 446: ((N-Me)G)-IC+SRSLP-(Oic)-I-(Pen)+IP-(Ida)-OH] | 2.7 nM | 72 nM |
| [Sar]ICSRS[tBuAla]PPI[Pen]IPD[Sar][Sar][Sar]-NH2 (disulfide 3-11; N-terminus assumed; SMILES CC[C@H](C)[C@H](NC(=O)CNC)C(=O)N[C@H]1CSSC(C)(C)[C@@H](C(=O)N[C@H](C(=O)N2CCC[C@H]2C(=O)N[C@@H](CC(=O)O)C(=O)N(C)CC(=O)N(C)CC(=O)N(C)CC(N)=O)[C@@H](C)CC)NC(=O)[C@H]([C@@H](C)CC)NC(=O)[C@@H]2CCCN2C(=O)[C@@H]2CCCN2C(=O)[C@H](CC(C)(C)C)NC(=O)[C@H](CO)NC(=O)[C@H](CCCNC(=N)N)NC(=O)[C@H](CO)NC1=O) [Example 433: ((N-Me)G)-IC+SRS-((tBu)A)-PPI-(Pen)+IPD-((N-Me)G)-((N-Me)G)-((N-Me)G)-NH2] | 1.7 nM | 120 nM |
| {Tranexamic″}-ICSRS[tBuAla]PPI[Pen]IP-{PEG7-NH2} (disulfide 2-10; SMILES CC[C@H](C)[C@@H]1NC(=O)[C@@H]2CCCN2C(=O)[C@@H]2CCCN2C(=O)[C@H](CC(C)(C)C)NC(=O)[C@H](CO)NC(=O)[C@H](CCCNC(=N)N)NC(=O)[C@H](CO)NC(=O)[C@@H](NC(=O)[C@@H](NC(=O)[C@H]2CC[C@@H](CN)CC2)[C@@H](C)CC)CSSC(C)(C)[C@@H](C(=O)N[C@H](C(=O)N2CCC[C@H]2C(=O)NCCOCCOCCOCCOCCOCCOCCOCCC(N)=O)[C@@H](C)CC)NC1=O) [Example 426: (Tranexamic)-IC+SRS-((tBu)A)-PPI-(Pen)+IP-(PEG7(25 atoms))-NH2] | 9.1 nM | 15 nM |
| [Sar]ICSRSLP[Oic]I[Pen]IP[(2S)‑3‑(Triazol-1-yl)‑2‑(amino)propanoic acid]-NH2 (disulfide 3-11) [Example 437: ((N-Me)G)-IC+SRSLP-(Oic)-I-(Pen)+IP-((2S)-3-(Triazol-1-yl)-2-(amino)propanoic acid)-NH2] | 2.2 nM | 76 nM |
| [Tranexamic]ICSRS[tBuAla]PPI[Pen]IP[PEG5]-NH2 (disulfide 3-11) [Example 435: (Tranexamic)-IC+SRS-((tBu)A)-PPI-(Pen)+IP-(PEG4(19 atoms))-NH2] | 9.2 nM | 17 nM |
